These results are taken from publication PMC5818740 (Protein Science : A Publication of the Protein Society, 2018).

Data set [1] deals with the molecule itself. In words: SEC; Superdex 75 in 25 mM TRIS-HCl pH 8.0, 250 mM NaCl, 5% glycerol, 2 mM DTT (reducing conditions). In general terms: Size exclusion chromatography separates by hydrodynamic size, large species first.
Data set [2] concerns the molecule itself. As to the kind of experiment: crystal structure; disulfide-locked PICK1 PDZ-QSAV dimer, crystallised with 4.5 molar equivalents of BIO124; 0.1 M BisTRIS pH 5.5, 25% PEG3350, 4°C; 2.44 Å.
Data set [3] addresses T1, lysine-methylated dimeric PICK1 PDZ-QSAV (human | , UniProt Q9NRD5 1-105, surface lysines methylated with 19C-labeled formaldehyde (so in the source)).
T1 construct: human PICK1, residues 1 to 105, holding the PDZ domain; The methods say 'dimeric PICK1 PDZ-QSAV'; also called methylated PICK1 PDZ material; source: E. coli BL21 (DE3), purified; surface lysines methylated with labelled formaldehyde and sodium cyanoborohydride
T1 chain: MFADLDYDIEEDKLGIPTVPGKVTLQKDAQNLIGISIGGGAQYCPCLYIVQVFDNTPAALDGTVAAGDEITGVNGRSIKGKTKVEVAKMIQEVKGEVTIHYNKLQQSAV
As to the kind of experiment: NMR titration; 1H-13C HSQC of lysine-methylated dimeric PICK1 PDZ-QSAV with GluA2 peptide added; 40 mM sodium phosphate pH 6.8, 150 mM NaCl, 0.2 mM EDTA, DMSO, D2O; 298 K. The conditions noted are these: both partners purified.

Data set [4] concerns the molecule itself. In words: crystal structure; disulfide-bridged, bCPA-treated PICK1 PDZ-QS dimer with BIO124, seeded with PICK1 PDZ-QSAV crystals; 0.1 M BisTRIS pH 5.5, 25% PEG3350, 4°C; 1.75 Å.

B1: PICK1 PDZ-QSAV (unlocked, reduced dimer) (domain or fragment)
chain: T1 chain
notes: The His tag is TEV cleavable; no cleavage step is described; also called PICK1 PDZ-QSAV protein; source: E. coli BL21 (DE3), purified (nickel resin, Superdex 75)
For orientation: stoichiometry N means a count of units in the complex or per binding partner. For the molecule B1, the “stoichiometry N” value in data set [1] amounted to 2.

B2: disulfide-bridged (locked) PICK1 PDZ-QSAV dimer (domain or fragment)
chain: T1 chain
modifications: intermolecular disulfides C44(A)-C46(B) and C44(B)-C46(A)
notes: human PICK1, residues 1 to 105, holding the PDZ domain; Same construct as m1 after oxidation; crystallised in the presence of BIO124, which was not seen in the structure; also called dimeric PICK1 PDZ-QSAV; oxidized dimer; source: E. coli BL21 (DE3), purified (nickel resin, Superdex 75), oxidised with 2.5 mM H2O2, Superdex 75
Take B2: the binding result in data set [2] is “binds”.

B3: wild type GluA2 peptide (VYGIESVKI) (peptide)
peptide: VYGIESVKI
notes: also called Wt GluR2 peptide; source: synthetic peptide, bought: New England Peptide
Take B3: the binding result in data set [3] is “binds”.

B4: bCPA-treated PICK1 PDZ-QS (disulfide-bridged dimer, with BIO124) (domain or fragment)
chain: MFADLDYDIEEDKLGIPTVPGKVTLQKDAQNLIGISIGGGAQYCPCLYIVQVFDNTPAALDGTVAAGDEITGVNGRSIKGKTKVEVAKMIQEVKGEVTIHYNKLQQS
modifications: disulfide-bridged dimer
notes: human PICK1, residues 1 to 105, holding the PDZ domain; what is left of the fused PKCalpha QSAV tail after removal of the 0 and -1 position residues (AV) by carboxypeptidase A; Removal of AV was >95% by mass spectrometry; the small molecule BIO124 sits in the peptide groove of both chains; also called PICK1 PDZ-QS BIO124 complex; PICK1-PDZ-BIO124; source: E. coli BL21 (DE3), purified, oxidised …
With B4, the binding result in data set [4] was “binds”.
